Read-outs that look alike come from different tables or passages of the source. One block for each binder: values may come before it.
How the values were obtained:
Assay in all cases: competition with Eu-TMC-2206 on human platelet α2β1-coated plate
[1] = target: T1, human platelet α2β1 integrin (immobilized on microtiter plates) (human, UniProt P17301 30-1181; P05556 21-798)
T1 construct: plates custom-coated with human platelet α2β1 by GTI Inc; also called immobilized α2β1 integrin; α2β1-coated plates
T1 sequence (P17301 30-1181 E534K limits assumed, chain 1 of 2): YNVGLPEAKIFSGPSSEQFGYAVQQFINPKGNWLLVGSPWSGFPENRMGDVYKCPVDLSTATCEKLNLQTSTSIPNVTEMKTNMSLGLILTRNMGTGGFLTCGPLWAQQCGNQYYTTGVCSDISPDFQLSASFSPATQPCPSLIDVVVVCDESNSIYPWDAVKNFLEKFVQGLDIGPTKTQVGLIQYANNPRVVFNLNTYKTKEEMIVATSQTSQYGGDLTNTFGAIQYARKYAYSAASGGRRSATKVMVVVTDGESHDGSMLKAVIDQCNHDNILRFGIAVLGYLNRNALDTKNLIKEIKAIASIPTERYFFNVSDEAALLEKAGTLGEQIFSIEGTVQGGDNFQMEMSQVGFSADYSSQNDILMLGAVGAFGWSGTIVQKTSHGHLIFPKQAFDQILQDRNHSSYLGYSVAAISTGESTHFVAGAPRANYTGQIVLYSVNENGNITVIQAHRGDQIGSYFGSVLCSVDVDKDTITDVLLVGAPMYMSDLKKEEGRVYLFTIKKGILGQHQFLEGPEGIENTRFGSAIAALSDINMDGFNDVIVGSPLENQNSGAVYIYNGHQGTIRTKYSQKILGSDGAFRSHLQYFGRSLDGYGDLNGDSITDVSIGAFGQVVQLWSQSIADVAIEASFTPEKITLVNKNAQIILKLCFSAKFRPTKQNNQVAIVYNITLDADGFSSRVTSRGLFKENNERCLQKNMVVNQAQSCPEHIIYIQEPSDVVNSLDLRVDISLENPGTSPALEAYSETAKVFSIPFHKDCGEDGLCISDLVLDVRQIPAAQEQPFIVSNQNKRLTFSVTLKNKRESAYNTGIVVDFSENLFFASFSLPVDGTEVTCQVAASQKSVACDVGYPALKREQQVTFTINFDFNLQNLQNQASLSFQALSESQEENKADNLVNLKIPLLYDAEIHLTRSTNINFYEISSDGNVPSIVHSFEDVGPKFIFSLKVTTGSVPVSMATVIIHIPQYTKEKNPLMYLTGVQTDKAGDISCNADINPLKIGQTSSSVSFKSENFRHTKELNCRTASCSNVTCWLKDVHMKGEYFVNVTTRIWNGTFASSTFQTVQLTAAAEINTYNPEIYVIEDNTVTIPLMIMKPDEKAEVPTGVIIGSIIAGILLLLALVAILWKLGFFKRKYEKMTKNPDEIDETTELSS
T1 sequence (P05556 21-798 limits assumed, chain 2 of 2): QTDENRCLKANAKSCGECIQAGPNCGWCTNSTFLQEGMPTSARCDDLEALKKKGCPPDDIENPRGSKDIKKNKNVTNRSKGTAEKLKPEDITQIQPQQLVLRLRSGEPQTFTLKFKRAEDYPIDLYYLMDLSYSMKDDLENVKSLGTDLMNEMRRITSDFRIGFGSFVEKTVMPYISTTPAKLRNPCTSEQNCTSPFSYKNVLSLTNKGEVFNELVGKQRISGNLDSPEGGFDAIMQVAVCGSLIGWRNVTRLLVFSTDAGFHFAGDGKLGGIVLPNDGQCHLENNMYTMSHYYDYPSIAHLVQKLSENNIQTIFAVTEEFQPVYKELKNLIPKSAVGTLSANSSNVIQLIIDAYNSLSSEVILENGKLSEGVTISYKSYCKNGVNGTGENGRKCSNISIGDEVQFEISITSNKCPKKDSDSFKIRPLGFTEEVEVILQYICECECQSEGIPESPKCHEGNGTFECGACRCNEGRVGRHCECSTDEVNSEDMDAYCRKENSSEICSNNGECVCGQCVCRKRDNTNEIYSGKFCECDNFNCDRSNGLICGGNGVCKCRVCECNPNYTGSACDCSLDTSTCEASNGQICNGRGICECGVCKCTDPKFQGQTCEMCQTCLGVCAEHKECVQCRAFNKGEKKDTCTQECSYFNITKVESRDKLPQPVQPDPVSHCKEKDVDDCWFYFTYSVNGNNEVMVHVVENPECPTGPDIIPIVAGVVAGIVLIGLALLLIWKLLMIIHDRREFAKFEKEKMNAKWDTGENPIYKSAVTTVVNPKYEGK

[2] = target: T1, human platelet α2β1 integrin …; remark: listed apart in the source
Description: (§1) Each labeled antibody mixture was applied to a separate PD-10 column (GE Biosciences, Piscataway, N.J.) pre-equilibrated with Running Buffer (50 mM Tris, pH 7.4 and 138 mM NaCl). Fractions (0.5 mL) were collected and assayed for total protein (Bradford reagent; Bio-Rad Laboratories, Hercules, Calif.) using a SpectraMax 384 absorbance plate reader and for europium after 1:10.000 dilution in DELFIA Enhancement Solution (Perkin-Elmer) by time-resolved fluorescence (TRF) using a Victor2 multi-label plate reader (Perkin Elmer). The fractions that were positive for both protein and Eu label were pooled and applied to new PD-10 columns and samples collected and assayed for total protein and for europium content by TRF calibrated against a europium standard solution (Perkin-Elmer) to calculate the fluor: protein ratio. […] After incubating the sealed plates for 1 hr at 37° C. to allow binding to reach equilibrium, 2 μL samples were transferred from each well into a fresh well containing DELFIA Enhancement Solution (100 μL/well; Perkin-Elmer) for the measurement of free (unbound) label. Enhancement Solution (100 μL/well) was added to the emptied wells for the measurement of bound label. The plate was shaken (Titer Plate Shaker speed setting of 5 for 5 minutes at room temperature) and time-resolved fluorescent (TRF) intensities were read using a Victor2 multi-label plate reader (Perkin-Elmer Wallac, Boston, Mas.).

[3] = target: T1, human platelet α2β1 integrin …; remark: listed apart in the source
Description: as §1

Ki [2]: 0.33 nM
B3: humanized TMC-2206 variant hVH14.0/hVL12.0Q (antibody, human IgG1, V domains shown)
VH: QVQLQESGPGLVKPSETLSLTCTVSGFSLTNYGIHWIRQPPGKGLEWLGVIWARGFTNYNSALMSRVTISKDNSKNQVSLKLSSVTAADTAVYYCARANDGVYYAMDYWGQGTLVTVSS
VL: DFVMTQSPAFLSVTPGEKVTITCSAQSSVNYIHWYQQKPDQAPKKLIYDTSKLASGVPSRFSGSGSGTDFTFTISSLEAEDAATYYCQQWTTNPLTFGQGTKVEIK
notes: human IgG1/κ constant regions; also called VH 14.0 VL 12.0Q

fold decrease (Ki) [1]: 6.4 fold
B8: humanized TMC-2206 variant hVH9.0, hVL1.0 (antibody, human IgG1, V domains shown)
VH: QVQLQESGPGLVKPSETLSLTCTVSGFSLTNYGIHWVRQPPGKGLEWIGVIWARGFTNYNSALMSRLTISVDNSKNQVSLKLSSVTAADTAVYFCARANDGVYYAMDYWGQGTLVTVSS
VL: QFVLTQSPAFLSVTPGEKVTITCSANSSVNYIHWYQQKPDQAPKKWIYDTSKLASGVPSRFSGSGSGTDYTFTISSLEAEDAATYYCQQWTTNPLTFGQGTKVEIK
notes: human IgG1/κ constant regions

Ki [2]: 0.29 nM
B9: humanized TMC-2206 variant hVH12.0/hVL10.0 (antibody, human IgG1, V domains shown)
VH: QVQLQESGPGLVKPSETLSLTCTVSGFSLTNYGIHWIRQPPGKGLEWLGVIWARGFTNYNSALMSRLTISKDNSKNQVSLKLSSVTAADTAVYYCARANDGVYYAMDYWGQGTLVTVSS
VL: DFVMTQSPAFLSVTPGEKVTITCSANSSVNYIHWYQQKPDQAPKKLIYDTSKLASGVPSRFSGSGSGTDYTFTISSLEAEDAATYYCQQWTTNPLTFGQGTKVEIK
notes: human IgG1/κ constant regions; also called VH 12.0 VL 10.0

Ki [2]: 0.32 nM
B11: humanized TMC-2206 variant hVH14.0/hVL10.0 (antibody, human IgG1, V domains shown)
VH: QVQLQESGPGLVKPSETLSLTCTVSGFSLTNYGIHWIRQPPGKGLEWLGVIWARGFTNYNSALMSRVTISKDNSKNQVSLKLSSVTAADTAVYYCARANDGVYYAMDYWGQGTLVTVSS
VL: DFVMTQSPAFLSVTPGEKVTITCSANSSVNYIHWYQQKPDQAPKKLIYDTSKLASGVPSRFSGSGSGTDYTFTISSLEAEDAATYYCQQWTTNPLTFGQGTKVEIK
notes: human IgG1/κ constant regions; also called VH 14.0 VL 10.0

fold decrease in potency compared to the hVH1.0, hVL1.0 variant (Ki) [1]: 70 fold
B12: humanized TMC-2206 variant hVH11.0, hVL1.0 (antibody, human IgG1, V domains shown)
VH: QVQLQESGPGLVKPSETLSLTCTVSGFSLTNYGIHWVRQPPGKGLEWIGVIWARGFTNYNSALMSRLTISKDNSKNQFSLKLSSVTAADTAVYFCARANDGVYYAMDYWGQGTLVTVSS
VL: QFVLTQSPAFLSVTPGEKVTITCSANSSVNYIHWYQQKPDQAPKKWIYDTSKLASGVPSRFSGSGSGTDYTFTISSLEAEDAATYYCQQWTTNPLTFGQGTKVEIK
notes: human IgG1/κ constant regions

fold decrease as measured by Ki [1]: 1.6 fold
B13: humanized TMC-2206 variant hVH10.0/hVL1.0 (antibody, V domains shown)
VH: QVQLQESGPGLVKPSETLSLTCTVSGFSLTNYGIHWVRQPPGKGLEWLGVIWARGFTNYNSALMSRLTISKDTSKNQVSLKLSSVTAADTAVYFCARANDGVYYAMDYWGQGTLVTVSS
VL: QFVLTQSPAFLSVTPGEKVTITCSANSSVNYIHWYQQKPDQAPKKWIYDTSKLASGVPSRFSGSGSGTDYTFTISSLEAEDAATYYCQQWTTNPLTFGQGTKVEIK
notes: human IgG1/κ; also called change to Thr-H73

Ki [3]: 2.6 nM | fold shift in potency compared to the hVH1.0, hVL1.0 variant [3]: 7.9 fold
B14: humanized TMC-2206 variant hVH4.0/hVL4.0 (antibody, human IgG1, V domains shown)
VH: QVQLQESGPGLVKPSETLSLTCTVSGFSLTNYGIHWIRQPPGKGLEWIGVIWARGFTNYNSALMSRLTISKDNSKNQVSLKLSSVTAADTAVYFCARANDGVYYAMDYWGQGTLVTVSS
VL: DVVMTQSPAFLSVTPGEKVTITCSANSSVNYIHWYQQKPDQAPKKWIYDTSKLASGVPSRFSGSGSGTDYTFTISSLEAEDAATYYCQQWTTNPLTFGQGTKVEIK
notes: human IgG1/κ constant regions

Ki [2]: 0.38 nM
B18: humanized TMC-2206 variant hVH14.0/hVL12.0 (antibody, human IgG1, V domains shown)
VH: QVQLQESGPGLVKPSETLSLTCTVSGFSLTNYGIHWIRQPPGKGLEWLGVIWARGFTNYNSALMSRVTISKDNSKNQVSLKLSSVTAADTAVYYCARANDGVYYAMDYWGQGTLVTVSS
VL: DFVMTQSPAFLSVTPGEKVTITCSANSSVNYIHWYQQKPDQAPKKLIYDTSKLASGVPSRFSGSGSGTDFTFTISSLEAEDAATYYCQQWTTNPLTFGQGTKVEIK
notes: human IgG1/κ constant regions; also called VH 14.0 VL 12.0

Second part, the binder before the results:

B1: TMC-2206 VH D100R variant antibody (antibody, V domains shown)
VH: QVQLKESGPGLVAPSQSLSITCTVSGFSLTNYGIHWVRQPPGKGLEWLGVIWARGFTNYNSALMSRLIITKDNSQSQVFLKMNSLQPDDSATYFCARANRGVYYAMDYWGQGTSVTVSS
VL: QFVLTQSPAFLSASPGEKVTMTCSANSSVNYIHWYQQKSGTSPKKWIYDTSKLASGVPVRFSGSGSGTSYSLTISSMETEDAATYYCQQWTTNPLTFGAGTRVELK
notes: variant murine VH-containing antibody; also called reverse charge mutant D100R
Ki [1]: 0.41 nM

B2: humanized TMC-2206 variant hVH1.0/hVL1.0Q (antibody, human IgG1, V domains shown)
VH: QVQLQESGPGLVKPSETLSLTCTVSGFSLTNYGIHWVRQPPGKGLEWLGVIWARGFTNYNSALMSRLTISKDNSKNQVSLKLSSVTAADTAVYFCARANDGVYYAMDYWGQGTLVTVSS
VL: QFVLTQSPAFLSVTPGEKVTITCSAQSSVNYIHWYQQKPDQAPKKWIYDTSKLASGVPSRFSGSGSGTDYTFTISSLEAEDAATYYCQQWTTNPLTFGQGTKVEIK
notes: human IgG1/κ constant regions; also called VH 1.0 VL 1.0Q
Ki [2]: 0.35 nM

B4: humanized TMC-2206 variant hVH1.0/hVL9.0 (antibody, V domains shown)
VH: QVQLQESGPGLVKPSETLSLTCTVSGFSLTNYGIHWVRQPPGKGLEWLGVIWARGFTNYNSALMSRLTISKDNSKNQVSLKLSSVTAADTAVYFCARANDGVYYAMDYWGQGTLVTVSS
VL: QFVLTQSPAFLSVTPGEKVTITCSANSSVNYIHWYQQKPDQAPKKWIKDTSKLASGVPSRFSGSGSGTDYTFTISSLEAEDAATYYCQQWTTNPLTFGQGTKVEIK
notes: human IgG1/κ; also called change of L49 to the human lysine
fold decrease in potency as measured by Ki [1]: 3.3 fold

B5: humanized TMC-2206 variant hVH1.0/hVL3.0 (antibody, human IgG1, V domains shown)
VH: QVQLQESGPGLVKPSETLSLTCTVSGFSLTNYGIHWVRQPPGKGLEWLGVIWARGFTNYNSALMSRLTISKDNSKNQVSLKLSSVTAADTAVYFCARANDGVYYAMDYWGQGTLVTVSS
VL: QFVLTQSPAFLSVTPGEKVTITCSANSSVNYIHWYQQKPDQAPKLLIYDTSKLASGVPSRFSGSGSGTDYTFTISSLEAEDAATYYCQQWTTNPLTFGQGTKVEIK
notes: human IgG1/κ constant regions; also called VH1.0/VL3.0
Ki [3]: 0.64 nM | fold shift in potency compared to the hVH1.0, hVL1.0 variant [3]: 1.9 fold

B6: humanized TMC-2206 variant hVH3.0/hVL1.0 (antibody, human IgG1, V domains shown)
VH: QVQLQESGPGLVKPSETLSLTCTVSGFSLTNYGIHWVRQPPGKGLEWLGVIWARGFTNYNSALMSRVTISVDTSKNQFSLKLSSVTAADTAVYFCARANDGVYYAMDYWGQGTLVTVSS
VL: QFVLTQSPAFLSVTPGEKVTITCSANSSVNYIHWYQQKPDQAPKKWIYDTSKLASGVPSRFSGSGSGTDYTFTISSLEAEDAATYYCQQWTTNPLTFGQGTKVEIK
notes: human IgG1/κ constant regions
Ki [3]: 12 nM | fold shift in potency compared to the hVH1.0, hVL1.0 variant [3]: 36 fold

B7: humanized TMC-2206 variant hVH3.0/hVL4.0 (antibody, human IgG1, V domains shown)
VH: QVQLQESGPGLVKPSETLSLTCTVSGFSLTNYGIHWVRQPPGKGLEWLGVIWARGFTNYNSALMSRVTISVDTSKNQFSLKLSSVTAADTAVYFCARANDGVYYAMDYWGQGTLVTVSS
VL: DVVMTQSPAFLSVTPGEKVTITCSANSSVNYIHWYQQKPDQAPKKWIYDTSKLASGVPSRFSGSGSGTDYTFTISSLEAEDAATYYCQQWTTNPLTFGQGTKVEIK
notes: human IgG1/κ constant regions
Ki [3]: 118 nM | fold shift in potency compared to the hVH1.0, hVL1.0 variant [3]: 358 fold

B10: humanized TMC-2206 variant hVH1.0/hVL4.0 (antibody, human IgG1, V domains shown)
VH: QVQLQESGPGLVKPSETLSLTCTVSGFSLTNYGIHWVRQPPGKGLEWLGVIWARGFTNYNSALMSRLTISKDNSKNQVSLKLSSVTAADTAVYFCARANDGVYYAMDYWGQGTLVTVSS
VL: DVVMTQSPAFLSVTPGEKVTITCSANSSVNYIHWYQQKPDQAPKKWIYDTSKLASGVPSRFSGSGSGTDYTFTISSLEAEDAATYYCQQWTTNPLTFGQGTKVEIK
notes: human IgG1/κ constant regions
Ki [3]: 1.4 nM | fold shift in potency compared to the hVH1.0, hVL1.0 variant [3]: 4.2 fold

B15: humanized TMC-2206 variant hVH3.0/hVL3.0 (antibody, human IgG1, V domains shown)
VH: QVQLQESGPGLVKPSETLSLTCTVSGFSLTNYGIHWVRQPPGKGLEWLGVIWARGFTNYNSALMSRVTISVDTSKNQFSLKLSSVTAADTAVYFCARANDGVYYAMDYWGQGTLVTVSS
VL: QFVLTQSPAFLSVTPGEKVTITCSANSSVNYIHWYQQKPDQAPKLLIYDTSKLASGVPSRFSGSGSGTDYTFTISSLEAEDAATYYCQQWTTNPLTFGQGTKVEIK
notes: human IgG1/κ constant regions
Ki [3]: 202 nM | fold shift in potency compared to the hVH1.0, hVL1.0 variant [3]: 631 fold

B16: humanized TMC-2206 variant hVH4.0/hVL3.0 (antibody, human IgG1, V domains shown)
VH: QVQLQESGPGLVKPSETLSLTCTVSGFSLTNYGIHWIRQPPGKGLEWIGVIWARGFTNYNSALMSRLTISKDNSKNQVSLKLSSVTAADTAVYFCARANDGVYYAMDYWGQGTLVTVSS
VL: QFVLTQSPAFLSVTPGEKVTITCSANSSVNYIHWYQQKPDQAPKLLIYDTSKLASGVPSRFSGSGSGTDYTFTISSLEAEDAATYYCQQWTTNPLTFGQGTKVEIK
notes: human IgG1/κ constant regions
Ki [3]: 1.34 nM | fold shift in potency compared to the hVH1.0, hVL1.0 variant [3]: 4.2 fold

B17: humanized TMC-2206 variant hVH4.0/hVL1.0 (antibody, human IgG1, V domains shown)
VH: QVQLQESGPGLVKPSETLSLTCTVSGFSLTNYGIHWIRQPPGKGLEWIGVIWARGFTNYNSALMSRLTISKDNSKNQVSLKLSSVTAADTAVYFCARANDGVYYAMDYWGQGTLVTVSS
VL: QFVLTQSPAFLSVTPGEKVTITCSANSSVNYIHWYQQKPDQAPKKWIYDTSKLASGVPSRFSGSGSGTDYTFTISSLEAEDAATYYCQQWTTNPLTFGQGTKVEIK
notes: human IgG1/κ constant regions
Ki [3]: 0.44 nM | fold shift in potency compared to the hVH1.0, hVL1.0 variant [3]: 1.3 fold

— patent US20070128190A1 (GLENMARK PHARMACEUTICALS S A, published 2007)
